In the Human Domainome abundance scans (Beltran et al. 2025):
± gives the uncertainty stated by the source.

B1: RanBP-type and C3HC4-type zinc finger-containing protein 1, residues 369 to 411; numbered along this chain, Q9BYM8 (parent)
chain: YHCKTPDCKGWCFFEDDVNEFTCPVCFHVNCLLCKAIHEQMNC

Variants of: B1
Assay: abundance fitness (aPCA) (normalised: wild type 0, dead -1); higher = more abundant; growth selection in yeast, the domain comes from the species named
Conditions: Homo sapiens

Point of comparison: H2F, abundance fitness 0.029 ± 0.074. Against it:
- Y1A — lower, -0.18 ± 0.093
- Y1S — lower, -0.409 ± 0.085
- G10R — lower, -0.66 ± 0.051
- G10A — lower, -0.541 ± 0.055
- G10T — lower, -0.494 ± 0.071
- G10F — lower, -0.346 ± 0.17
- G10P — lower, -0.723 ± 0.14
- G10K — lower, -0.621 ± 0.14
- G10N — lower, -0.79 ± 0.16
- C26K — lower, -0.834 ± 0.095
- C26L — lower, -0.792 ± 0.086
- C26M — lower, -1.05 ± 0.42
- K9W — lower, -0.105 ± 0.05
- K9Q — within error, -0.033 ± 0.052
- K9T — within error, 0.056 ± 0.049
- D7Q — lower, -0.194 ± 0.065
- D7L — lower, -0.2 ± 0.04
- D7P — lower, -0.615 ± 0.11
- F21K — lower, -0.285 ± 0.093
- F21G — lower, -0.291 ± 0.04
- F21Y — within error, -0.06 ± 0.13
- F21Q — lower, -0.205 ± 0.053
- F21L — lower, -0.45 ± 0.048
- F21D — lower, -0.211 ± 0.11
- F21M — lower, -0.188 ± 0.079
- F21R — lower, -0.359 ± 0.04
- F21I — within error, -0.039 ± 0.24
- F21S — within error, 0.07 ± 0.043
- T22D — lower, -0.343 ± 0.11
- T22A — lower, -0.296 ± 0.05
- T22W — lower, -0.422 ± 0.048
- T22N — lower, -0.32 ± 0.13
- P24L — lower, -0.681 ± 0.13
- P24N — lower, -0.233 ± 0.077
- P24G — lower, -0.389 ± 0.041
- P24H — lower, -0.676 ± 0.11
- P24D — lower, -0.36 ± 0.13
- A36E — within error, 0.058 ± 0.062
- A36K — within error, -0.084 ± 0.052
- A36W — lower, -0.87 ± 0.075
- A36I — lower, -0.331 ± 0.11
- A36F — lower, -0.848 ± 0.12
- C23E — lower, -0.82 ± 0.084
- C23R — lower, -0.771 ± 0.057
- C23G — lower, -0.891 ± 0.07
- C34Q — lower, -0.494 ± 0.048
- C34E — lower, -0.312 ± 0.044
- C34M — lower, -0.881 ± 0.087
- C34T — lower, -0.547 ± 0.068
- C34G — lower, -0.467 ± 0.044
- C34Y — lower, -0.875 ± 0.16
- C3S — lower, -0.831 ± 0.082
- C3E — lower, -0.984 ± 0.16
- C12S — within error, 0.252 ± 0.17
- C12Y — within error, 0.04 ± 0.18
- C43P — lower, -0.211 ± 0.089
- C43M — lower, -0.507 ± 0.43
- H38W — lower, -1 ± 0.086
- H38P — lower, -0.611 ± 0.084
- H38D — lower, -0.482 ± 0.062
- H38N — lower, -0.76 ± 0.09
- H38V — lower, -0.803 ± 0.082
- H38L — lower, -1.14 ± 0.11
- H28M — within error, -0.065 ± 0.043
- H28D — lower, -0.661 ± 0.091
- H28R — within error, 0.011 ± 0.04
- H28Y — lower, -0.489 ± 0.11
- H28Q — within error, 0.059 ± 0.051
- V25E — lower, -0.138 ± 0.066
- V25M — lower, -0.298 ± 0.072
- V25P — lower, -0.76 ± 0.079
- V25Y — within error, -0.221 ± 0.2
- V25Q — lower, -0.17 ± 0.054
- E20H — lower, -0.332 ± 0.079
- E20T — lower, -0.119 ± 0.057
- E20F — lower, -0.122 ± 0.07
- E20D — lower, -0.347 ± 0.1
- E20M — within error, -0.1 ± 0.076
- E20C — lower, -0.303 ± 0.092
- L33V — within error, -0.072 ± 0.045
- L33M — within error, 0.033 ± 0.12
- D16L — lower, -0.166 ± 0.054
- D16M — lower, -0.244 ± 0.073
- D16R — within error, 0.044 ± 0.046
- D16I — lower, -0.458 ± 0.17
- F27L — within error, -0.02 ± 0.044
- F27W — lower, -0.147 ± 0.047
- K35E — within error, -0.026 ± 0.057
- K35L — lower, -0.321 ± 0.051
- K35Q — within error, -0.026 ± 0.06
- K35P — lower, -0.356 ± 0.063
- K35Y — lower, -0.273 ± 0.061
- K35S — within error, -0.014 ± 0.057
- K35W — lower, -0.385 ± 0.064
- K35T — lower, -0.281 ± 0.042
- K35M — within error, -0.026 ± 0.07
- Q40C — lower, -0.139 ± 0.064
- Q40E — within error, 0.107 ± 0.054
- W11M — higher, 0.191 ± 0.065
- V29R — lower, -0.105 ± 0.044
- V29C — within error, -0.265 ± 0.25
- V29D — lower, -0.414 ± 0.13
- V29P — lower, -0.624 ± 0.11
- V29S — lower, -0.257 ± 0.086
- V29Q — lower, -0.311 ± 0.074
- T5N — lower, -0.236 ± 0.098
- T5H — lower, -0.159 ± 0.067
- H2I — lower, -0.265 ± 0.14
- H2Y — within error, 0.105 ± 0.07
- H2K — within error, 0.095 ± 0.062
- H2D — lower, -0.275 ± 0.11
- E15T — within error, -0.042 ± 0.06
- E15D — within error, -0.201 ± 0.16
- E15N — lower, -0.295 ± 0.075
- L32Y — lower, -0.302 ± 0.062
- L32E — lower, -0.366 ± 0.045
- F13T — within error, -0.084 ± 0.13
- F13G — lower, -0.279 ± 0.082
- F13V — lower, -0.235 ± 0.094
- F13R — within error, 0.092 ± 0.081
- C31A — lower, -0.805 ± 0.056
- I37Y — lower, -0.464 ± 0.064
- V18D — lower, -0.222 ± 0.075
- V18T — within error, -0.01 ± 0.073
- V18K — within error, -0.001 ± 0.058
- V18R — within error, 0.069 ± 0.039
- N30A — lower, -1.3 ± 0.14
- N30E — lower, -0.891 ± 0.099
- N30Y — lower, -0.614 ± 0.14
- N19M — within error, -0.078 ± 0.058
- N19R — within error, 0.014 ± 0.04
- N19A — within error, -0.023 ± 0.042
- N19F — within error, -0.395 ± 0.44
- N19Y — within error, -0.172 ± 0.23
- C8M — lower, -0.843 ± 0.086
- C8V — lower, -0.999 ± 0.1
- C8L — lower, -0.846 ± 0.14
- N42Y — within error, -0.122 ± 0.14
- N42C — within error, -0.005 ± 0.094
- N42K — within error, -0.064 ± 0.05
- E39M — lower, -0.143 ± 0.072
- E39A — within error, -0.09 ± 0.049
- E39S — within error, -0.09 ± 0.051
- E39P — the same, 0.029 ± 0.059
- E39N — within error, -0.081 ± 0.17
- F14S — within error, -0.165 ± 0.14
- F14L — higher, 0.243 ± 0.08
- K4C — lower, -0.201 ± 0.051
- K4V — within error, 0.051 ± 0.045
- K4L — within error, 0.124 ± 0.044
- K4S — lower, -0.14 ± 0.055
- K4W — within error, -0.083 ± 0.065
- K4M — higher, 0.201 ± 0.062
- M41T — higher, 0.155 ± 0.048
- M41N — within error, 0.114 ± 0.062
- M41K — within error, 0.101 ± 0.052
- M41F — lower, -0.2 ± 0.11
- P6E — lower, -0.185 ± 0.049
- P6C — lower, -0.709 ± 0.1
- P6M — lower, -0.23 ± 0.06
- P6S — lower, -0.266 ± 0.069
- D17Q — within error, 0.142 ± 0.064
- D17V — within error, 0.034 ± 0.055
- D17I — lower, -0.265 ± 0.11
- D17H — within error, -0.021 ± 0.06
- D17A — within error, -0.038 ± 0.048
